B1: Pistol ribozyme (parent)
chain: GGGUCGUUGUUCCAUAAUCGCGUGGAUAUGGCACGCAAGUUUCUACCGGGCACCGUAAAUGUCCGACUGGAGCCGUUCGGGCGGCUAUAAACAGACCUCAGGCCCGAAGCGUGGCGGCACCUGCCGCCGGUGGUAAAAAAGAUCGGAAGAGCACACGUCU

Variants of: B1
Experiment: aptazyme ON/OFF ratio, guanine; higher = stronger switching; co-transcriptional cleavage with and without guanine

Row | Variant | aptazyme ON/OFF ratio
1 | U7G U8G U10C U11C C12G C13G | 1.2
2 | U7G U8G U10C U11C C12G C13U | 1.45
3 | U7G U8G U10C U11C C12G C13A | 1.24
4 | U7G U8G U10A U11G C12U C13A | 1.23
5 | U7G U8G U10A U11G C12U C13U | 1.22
6 | U7G U8G U10A U11G C12U C13G | 1.36
7 | U7G U8G U10G U11C C12U | 1.24
8 | U7G U8G U10G U11C C12A | 1.17
9 | U7G U8G U10G U11C C12G | 1.29
10 | U7G U8G U10A C12G C13A | 1.16
11 | U7G U8G U10A C12G C13U | 0.978
12 | U7G U8G U10A C12G C13G | 1.2
13 | U7G U8G G9U U10G C12U | 1.13
14 | U7G U8G G9U U10G C12A | 1.44
15 | U7G U8G G9U U10G C12G | 1.33
16 | U7G U8G G9U U11G C12A C13U | 1.16
17 | U7G U8G G9U U11G C12A C13A | 1.1
18 | U7G U8G G9U U11G C12A C13G | 1.12
19 | U7G U8G G9U U10G C13U | 1.36
20 | U7G U8G G9U U10G C13G | 1.21
21 | U7G U8G G9U U10G C13A | 1.27

Row | Variant | aptazyme ON/OFF ratio
22 | U7G U8G U10A C12U C13U | 1.09
23 | U7G U8G U10A C12U C13A | 1.16
24 | U7G U8G U10A C12U C13G | 1.18
25 | U7G U8G U10A U11G C12G C13A | 1.15
26 | U7G U8G U10A U11G C12G C13G | 1.23
27 | U7G U8G U10A U11G C12G C13U | 1.22
28 | U7G U8G U10G C12A C13G | 1.19
29 | U7G U8G U10G C12A C13A | 1.51
30 | U7G U8G U10G C12A C13U | 1.4
31 | U7G U8G U10A C12G | 1.29
32 | U7G U8G U10A C12U | 1.45
33 | U7G U8G U10A C12A | 1.28
34 | U7G U8G U10A U11A C12G C13U | 1.13
35 | U7G U8G U10A U11A C12G C13G | 1.26
36 | U7G U8G U10A U11A C12G C13A | 1.22
37 | U7G U8G U10G U11A C13G | 1.18
38 | U7G U8G U10G U11A C13A | 1.21
39 | U7G U8G U10G U11A C13U | 1.24
40 | U7G U8G G9U U10G U11A C12U C13U | 1.2
41 | U7G U8G G9U U10G U11A C12U C13G | 1.19
42 | U7G U8G G9U U10G U11A C12U C13A | 1.1

Row | Variant | aptazyme ON/OFF ratio
43 | U7G U8G G9U U10G | 1.42
44 | U7G U8G G9U U11C C13U | 1.41
45 | U7G U8G G9U U11C C13G | 1.1
46 | U7G U8G G9U U11C C13A | 1.4
47 | U7G U8G G9U U11G C13G | 1.19
48 | U7G U8G G9U U11G C13A | 1.2
49 | U7G U8G G9U U11G C13U | 1.42
50 | U7G U8G U10C U11C | 2.2
51 | U7G U8G U10C U11A | 1.74
52 | U7G U8G U10C U11G | 1.56
53 | U7G U8G U10G U11A C12G C13A | 1.28
54 | U7G U8G U10G U11A C12G C13U | 1.47
55 | U7G U8G U10G U11A C12G C13G | 1.44
56 | U7G U8G G9U U10G U11C C12G C13A | 1.1
57 | U7G U8G G9U U10G U11C C12G C13U | 1.14
58 | U7G U8G G9U U10G U11C C12G C13G | 1.05
59 | U7G U8G U10G U11C | 2.08
60 | U7G U8G U10G U11A | 1.66
61 | U7G U8G G9U U10G U11G C12G C13A | 1.09
62 | U7G U8G G9U U10G U11G C12G C13U | 1.14
63 | U7G U8G G9U U10G U11G C12G C13G | 1.06

Row | Variant | aptazyme ON/OFF ratio
64 | U7G U8G G9U U10C U11G C13U | 1.28
65 | U7G U8G G9U U10C U11G C13G | 1.21
66 | U7G U8G G9U U10C U11G C13A | 1.22
67 | U7G U8G U10C U11A C12G | 1.21
68 | U7G U8G U10C U11A C12U | 1.36
69 | U7G U8G U10C U11A C12A | 1.34
70 | U7G U8G G9U U10C U11A C12U C13A | 1.35
71 | U7G U8G G9U U10C U11A C12U C13U | 1.36
72 | U7G U8G G9U U10C U11A C12U C13G | 1.37
73 | U7G U8G G9U U10C U11G C12A | 1.32
74 | U7G U8G G9U U10C U11G C12U | 1.22
75 | U7G U8G G9U U10C U11G C12G | 1.39
76 | U7G U8G U10G U11C C12A C13G | 1.3
77 | U7G U8G U10G U11C C12A C13A | 1.53
78 | U7G U8G U10G U11C C12A C13U | 1.46
79 | U7G U8G U10A U11G C12U | 1.38
80 | U7G U8G U10A U11G C12A | 1.16
81 | U7G U8G U10A U11G C12G | 1.2
82 | U7G U8G U10A U11C C13G | 1.25
83 | U7G U8G U10A U11C C13U | 1.08
84 | U7G U8G U10A U11C C13A | 1.27

Source: the RNAGym collection of RNA variant scans (doi:10.1021/acssynbio.7b00057)
